Laboratory results: paper PMC12513996 (Nature Communications, 2025)

B2: FIP200(1490–1594) (domain or fragment)
chain: SRHSEKIAIRDFQVGDLVLIILDERHDNYVLFTVSPTLYFLHSESLPALDLKPGEGASGASRRPWVLGKVMEKEYCQAKKAQNRFKVPLGTKFYRVKAVSWNKKV
B3: FIP200(1490–1594) of the crystallised FIP200 Claw/ATG16L1 FIR complex (domain or fragment)
chain: SRHSEKIAIRDFQVGDLVLIILDERHDNYVLFTVSPTLYFLHSESLPALDLKPGEGASGASRRPWVLGKVMEKEYCQAKKAQNRFKVPLGTKFYRVKAVSWNKKV

Key:
GST-[…]1 = GST-[…]1 (human, UniProt Q9H0R8 1-117); test: SEC
ATG16L1(78–247) = ATG16L1(78–247) (human, UniProt Q676U5 78-247); test: SEC-MALS
crystal structure = molecular target: the molecule itself; test: crystal structure
FIP200(1490–1594) = molecular target: B2; test: SEC
[1] = molecular target: B3; test: crystal structure

GST-[…]1, sequence (Q9H0R8 whole entry): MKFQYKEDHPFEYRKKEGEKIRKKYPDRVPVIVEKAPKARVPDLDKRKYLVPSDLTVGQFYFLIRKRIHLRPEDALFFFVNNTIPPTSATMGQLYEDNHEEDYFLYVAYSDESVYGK

B1: Trx-tagged ATG16L1(78–247) (domain or fragment)
chain: NDNQLQEMAQLRIKHQEELTELHKKRGELAQLVIDLNNQMQRKDREMQMNEAKIAECLQTISDLETECLDLRTKLCDLERANQTLKDEYDALQITFTALEGKLRKTTEENQELVTRWMAEKAQEANRLNAENEKDSRRRQARLQKELAEAAKEPLPVEQDDDIEVIVDET
- binding result (GST-[…]1): binds

Binder: B2
- stoichiometry N (ATG16L1(78–247)): 1

Binder: B3
- stoichiometry N (crystal structure): 2

Binder: EQDDDIEVIVDET (domain or fragment) [Trx-tagged ATG16L1 FIR]
- binding result (FIP200(1490–1594)): binds

Binder: EQDDDIEVIVDET [ATG16L1(235–247) of the crystallised FIP200 Claw/ATG16L1 FIR complex]
- binding result [1]: binds
